Target: the molecule itself
Assay: SEC; Superdex 200 10/300 GL, room temperature, 50 mM NaH2PO4, 150 mM NaCl, pH 7.0; calibrated with globular proteins

B1: three pseudomurein binding motifs with C-terminal ten-Histidine tag (3P-His10), the PMB domain of MTH719 (domain or fragment, Methanothermobacter thermautotrophicus)
chain: MGGGFAASVKISVRQLTDAASWVRAYYGRYGRLPGKVTISGHGYSMAQFLYLLCRATVNINAGNVAPISVKSVASAPASGGWYRHGRLYRSSYVRVAKNILSFIDSRGRAPNYAITGLGRIPFQRLVYMYSKIIKFYGTNKRLPNYVTI
notes: short N-terminal peptide region resulting from the cloning procedure (LIC); also called PMB domain 3P-His10; 3P-His10 PMB domain; source: E. coli Rosetta gami 2 (pBADcLIC, arabinose induced), purified (Ni-NTA); not shown: His10, C-terminal, kept
binding result: binds

Reference: PMC3124540, “A Minimum of Three Motifs Is Essential for Optimal Binding of Pseudomurein Cell Wall-Binding Domain of Methanothermobacter thermautotrophicus” (PLoS ONE, 2011)
